Measurements as given in paper PMC12335366.

Tests used:
[1] = biological target: BG505 DS-SOSIP.664 stabilized soluble HIV-1 Env trimer (HIV-1 (clade A, strain BG505)) (UniProt Q2N0S6); assay: negative stain electron microscopy
[2] = biological target: BG505 Env (unmutated), on pseudovirus (HIV-1 (clade A, strain BG505)) (UniProt Q2N0S6)
[3] = biological target: CH505 Env, on pseudovirus (HIV-1 (clade C, isolate CH505))

**Q.** With “CH103 KN Fab (partially UCA-reverted CH103 mutant, E75K and D76N)” as the molecule, how does the stoichiometry N (Fab per trimer) [1] read?
**A.** 1

**Q.** With mature CH103 Fab as the molecule, how does the stoichiometry N (Fabs per trimer) [1] read?
**A.** 2

B1: CH103 KN antibody (IgG; E75K and D76N in the heavy chain) (antibody, V domains shown)
V domain 1: QVQLQESGPGVVKSSETLSLTCTVSGGSMGGTYWSWLRLSPGKGLEWIGYIFHTGETNYSPSLKGRVSISVDTSKNQFSLRLRSVTAADTAVYFCASLPRGQLVNAYFRNWGRGSLVSVTA
V domain 2: SYELTQPPSVSVSPGQTATITCSGASTNVCWYQVKPGQSPEVVIFENYKRPSGIPDRFSGSKSGSTATLTIRGTQAIDEADYYCQVWDSFSTFVFGSGTQVTVL
**Q.** How did the neutralisation of BG505 pseudovirus (TZM-bl), decrease against mature CH103 [2] turn out when B1 was run?
**A.** > 3 fold

**Q.** What about the neutralisation of CH505 pseudovirus (TZM-bl), decrease against mature CH103 [3] of the same molecule?
**A.** > 3 fold
